In patent US20250092151A1 (ALTRUBIO, published 2025):

T1: human P-selectin glycoprotein ligand-1 (PSGL-1), expressed on Sp2/0-hPSGL-1 cells (human, UniProt Q14242 42-412)
T1 construct: Sp2/0 cells transfected with human PSGL-1; also called human PSGL-1; SELPLG
T1 sequence: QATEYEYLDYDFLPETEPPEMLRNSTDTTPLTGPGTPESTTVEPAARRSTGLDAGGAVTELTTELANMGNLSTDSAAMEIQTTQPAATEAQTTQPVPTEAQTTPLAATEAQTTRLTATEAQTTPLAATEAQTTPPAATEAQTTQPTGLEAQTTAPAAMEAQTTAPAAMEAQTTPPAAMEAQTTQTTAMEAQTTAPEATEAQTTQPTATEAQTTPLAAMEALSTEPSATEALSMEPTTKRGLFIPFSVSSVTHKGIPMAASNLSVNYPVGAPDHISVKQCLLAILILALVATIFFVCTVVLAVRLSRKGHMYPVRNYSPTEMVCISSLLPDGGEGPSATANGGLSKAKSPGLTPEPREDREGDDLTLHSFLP


Legend:
[1] = molecular target: T1, human P-selectin glycoprotein ligand-1 …; assay: flow cytometry on Sp2/0-hPSGL-1 cells, antibody at 0.1 µg/mL
Procedure: (§1) Sp2/0 cells transfected with human PSGL-1 (Sp2/0-hPSGL1) were used as the PSGL-1 expressing cell line. Sp2/0-hPSGL1 cells were centrifuged at 1200 rpm for 5 min. The cell pellets were resuspended in FACS buffer (PBS containing 1% FBS) and pipetted into 96 well plate (1×10⁵ cells/well). To each well was added 100 μl of supernatants containing humanized 15A7H (h15A7H)/tetravalent antibodies, and these were incubated for 60 min at 4° C. The cells were washed three times with cold FACS buffer and then incubated with 100 μl of Mouse Anti-Human IgG₄ pFc′-PE (SouthernBiotech Cat. no. 9190-09) at 1 μg/ml concentration for 60 min at 4° C. Subsequently, the cells were washed three times with cold FACS buffer and analyzed by FACS analysis. All flow cytometric analyses were performed on a BD-LSR flow cytometer (Becton Dickinson) using the Cell Quest software.
(§2) The binding ability of h15A7H tetravalent antibodies was evaluated in human PSGL-1 SP2/O cells. The h15A7H tetravalent antibody bound positively to the SP2/O-hPSGL-1, but not to parental SP2/O cell lacking of hPSGL-1 antigen (Table A below). Additionally, wild type h15A7H and all of h15A7H tetravalent antibodies gave similar binding activity on SP2/O-hPSGL-1 (Table A).

[2] = molecular target: T1, human P-selectin glycoprotein ligand-1 …; assay: flow cytometry on Sp2/0-hPSGL-1 cells, antibody at 1 µg/mL
Procedure: as §1, §2

[3] = molecular target: T1, human P-selectin glycoprotein ligand-1 …; assay: flow cytometry on Sp2/0-hPSGL-1 cells, antibody at 3 µg/mL
Procedure: as §1, §2

[4] = molecular target: T1, human P-selectin glycoprotein ligand-1 …; assay: cell-based or functional assay
[5] = molecular target: T1, human P-selectin glycoprotein ligand-1 …; assay: flow cytometry on Sp2/0-hPSGL-1 cells, antibody at 0.3 µg/mL
Procedure: as §1, §2

mean fluorescence intensity [1] | mean fluorescence intensity [2] | mean fluorescence intensity [3] | Apoptosis % (background subtracted, n = 4), mean, at 0.0625 µg/mL, SP2/O-hPSGL-1 cells, Annexin V/PI [4] | Apoptosis % (background subtracted, n = 4), mean, at 0.5 µg/mL, SP2/O-hPSGL-1 cells, Annexin V/PI [4] | mean fluorescence intensity [5] | Binder
2640 MFI | 6010 MFI | 5940 MFI | 1.75% | 35.8% | 4640 MFI | h15A7H scFv4-crIgG4p (antibody, Tetravalent: four v2 scFv units fused without a linker to the N-termini of the kappa and IgG4p constant regions) light: EVQLVESGGGLVQPGGSLRLSCAASGFTFSSFGMHWVRQAPGKCLEWVAYINGGSSTIFYANAVKGRFTISRDNAKNTLYLQMNSLRAEDTAVYYCARYASYGGGAMDYWGQGTLVTVSSGGGGSGGGGSGGGGSGGGGSGGGGSDIQMTQSPSSLSASVGDRVTITCRSSQSIVHNDGNTYFEWYQQKPGKAPKLLIYKVSNRFSGVPSRFSGSGSGTHFTLTISSLQPEDFATYYCFQGSYVPLTFGCGTKVEIKRTVAAPSVFIFPPSDEQLKSGTASVVCLLNNFYPREAKVQWKVDNALQSGNSQESVTEQDSKDSTYSLSSTLTLSKADYEKHKVYACEVTHQGLSSPVTKSFNRGEC heavy: not shown
3410 MFI | 6400 MFI | 4670 MFI | 1.5% | 2.75% | 5940 MFI | h15A7H (antibody, IgG4, V domains shown, Bivalent humanized IgG4 kappa antibody with the S228P hinge mutation; also called humanized 15A7H; wild type h15A7H; not shown: human immunoglobulin kappa light chain constant region) VH: EVQLVESGGGLVQPGGSLRLSCAASGFTFSSFGMHWVRQAPGKGLEWVAYINGGSSTIFYANAVKGRFTISRDNAKNTLYLQMNSLRAEDTAVYYCARYASYGGGAMDYWGQGTLVTVSS VL: DIQMTQSPSSLSASVGDRVTITCRSSQSIVHNDGNTYFEWYQQKPGKAPKLLIYKVSNRFSGVPSRFSGSGSGTHFTLTISSLQPEDFATYYCFQGSYVPLTFGQGTKVEIK
3040 MFI | 5820 MFI | 6030 MFI | 0.5% | 18% | 3480 MFI | h15A7H LC-scFv2-IgG4p (antibody, Tetravalent: a v2 scFv fused to the C-terminus of each kappa light chain of h15A7H IgG4p) light: DIQMTQSPSSLSASVGDRVTITCRSSQSIVHNDGNTYFEWYQQKPGKAPKLLIYKVSNRFSGVPSRFSGSGSGTHFTLTISSLQPEDFATYYCFQGSYVPLTFGQGTKVEIKRTVAAPSVFIFPPSDEQLKSGTASVVCLLNNFYPREAKVQWKVDNALQSGNSQESVTEQDSKDSTYSLSSTLTLSKADYEKHKVYACEVTHQGLSSPVTKSFNRGECGGGGSGGGGSEVQLVESGGGLVQPGGSLRLSCAASGFTFSSFGMHWVRQAPGKCLEWVAYINGGSSTIFYANAVKGRFTISRDNAKNTLYLQMNSLRAEDTAVYYCARYASYGGGAMDYWGQGTLVTVSSGGGGSGGGGSGGGGSGGGGSGGGGSDIQMTQSPSSLSASVGDRVTITCRSSQSIVHNDGNTYFEWYQQKPGKAPKLLIYKVSNRFSGVPSRFSGSGSGTHFTLTISSLQPEDFATYYCFQGSYVPLTFGCGTKVEIKAAAHHHHHHHHHH heavy: not shown
5540 MFI | 5740 MFI | 4380 MFI | 15.5% | 23.8% | 7060 MFI | h15A7H scFv2-LC-IgG4p (antibody, Tetravalent: a v2 scFv fused to the N-terminus of each kappa light chain of h15A7H IgG4p) light: EVQLVESGGGLVQPGGSLRLSCAASGFTFSSFGMHWVRQAPGKCLEWVAYINGGSSTIFYANAVKGRFTISRDNAKNTLYLQMNSLRAEDTAVYYCARYASYGGGAMDYWGQGTLVTVSSGGGGSGGGGSGGGGSGGGGSGGGGSDIQMTQSPSSLSASVGDRVTITCRSSQSIVHNDGNTYFEWYQQKPGKAPKLLIYKVSNRFSGVPSRFSGSGSGTHFTLTISSLQPEDFATYYCFQGSYVPLTFGCGTKVEIKASTGSGGGGSDIQMTQSPSSLSASVGDRVTITCRSSQSIVHNDGNTYFEWYQQKPGKAPKLLIYKVSNRFSGVPSRFSGSGSGTHFTLTISSLQPEDFATYYCFQGSYVPLTFGQGTKVEIKRTVAAPSVFIFPPSDEQLKSGTASVVCLLNNFYPREAKVQWKVDNALQSGNSQESVTEQDSKDSTYSLSSTLTLSKADYEKHKVYACEVTHQGLSSPVTKSFNRGEC heavy: not shown
